From patent publication US20100247589A1
Where no end group is shown, it is not given here. The star is where a group is joined. Biotin = O=C1N[C@H]2[C@H](CS[C@H]2CCCCC(=O)*)N1

The binders below were run against tooth pellicle (thin film derived from salivary glycoproteins, formed in a human mouth) (human) (assay: phage ELISA on pellicle-coated bovine enamel, anti-M13-HRP, normalized to internal control).

O.D.450 (normalized)	Binder
0.845	QAAQVHMMQHSRPTT [DenP13]
2.19	GPQHVLMQDTHQGYAFDN [DenP16]
1.04	DTIHPNKMKSPSSPL [DenP26]
0.909	ANELSTYAQTNPGSG [DenP25]
1.5	EFPYYNDNPPNPERHTLR [DenP7]
2.08	FDGIGLGTATRHQNR [DenP12]
1.2	APPTYQTASYPHNLPSKRKM [DenP28]
1	NGNNHTDIPNRSSYTGGSFA [DenP1]
1.42	VEPATKNMREARSSTQMRRI [DenP4]
1.24	HDPNHLTHQARTIYRNANHT [DenP23]
1.05	TYQGVPSWPAVIDDAIRR [DenP19]
0.976	QVPDYLSPTHQKKAFLEIPT [DenP29]
1.3	VNPNWVETQALHQPPGNT [DenP20]
1.11	ELDHDSRHYMNGLQRKVT [DenP15]
1.95	TMTNHVYNSYTEKHSSTHRS [DenP2]
1.14	KAPIANMLQPHSYQYSVA [DenP18]
1.66	DLGTFPNRTLKMAAH [DenP11]
0.971	TTGSSSQADTSASMSIVPAH [DenP17]
1	IPWWNIRAPLNAGGG [Control (SEQ ID NO: 95)]
1.42	IYPNESMSTSNVRGPYHP [DenP22]
1.62	AVVPADLNDHANHLS [DenP10]
0.728	DHNNRQHAVEVRENKTHTAR [DenP21]
1.36	HKNAIQPVNDATTLDTTM [DenP9]
1.08	TNDLHANPFTGTYIAPDPTS [DenP30]
1.44	HKNENIMQYNVNDRWHITPA [DenP32]
1.09	YLLPKDQTTAPQVTPIVQHK [DenP5]
1.18	GMPTRYYHNTPPHLTPKF [DenP8]
0.979	SNATMYNIQSHSHHQ [DenP24]
2.5	SEARARTFNDHTTPMPII [DenP14]

These binders were tested against tooth pellicle (thin film derived from salivary glycoproteins, formed in a human mouth) (human) (assay: ELISA, 20 uM biotinylated peptide on pellicle-coated bovine enamel, streptavidin-HRP, normalized to DenP03; no-peptide control -0.001).

O.D.450 (normalized)	Binder
0.59	SSRPVNPNWVETQALHQPPGNTK(Biotin) [DenP20-A]
0.154	SSRPNGNNHTDIPNRSSYTGGSFAK(Biotin) [DenP1-A]
0.454	SSRPDLGTFPNRTLKMAAHK(Biotin) [DenP11-A]
0.143	SSRPTTGSSSQADTSASMSIVPAHK(Biotin) [DenP17-A]
0.354	SSRPIYPNESMSTSNVRGPYHPK(Biotin) [DenP22-A]
0.475	SSRPFDGIGLGTATRHQNRK(Biotin) [DenP12-A]
0.699	SSRPQAAQVHMMQHSRPTTK(Biotin) [DenP13-A]
0.803	SSRPVEPATKNMREARSSTQMRRIK(Biotin) [DenP4-A]
0.46	SSRPELDHDSRHYMNGLQRKVTK(Biotin) [DenP15-A]
0.356	SSRPEFPYYNDNPPNPERHTLRK(Biotin) [DenP7-A]
0.712	SSRPTYQGVPSWPAVIDDAIRRK(Biotin) [DenP19-A]
0.309	SSRPGPQHVLMQDTHQGYAFDNK(Biotin) [DenP16-A]
0.462	SSRPYLLPKDQTTAPQVTPIVQHKK(Biotin) [DenP5-A]
0.85	SSRPHDPNHLTHQARTIYRNANHTK(Biotin) [DenP23-A]
0.273	SSRPTMTNHVYNSYTEKHSSTHRSK(Biotin) [DenP2-A]
0.269	SSRPSEARARTFNDHTTPMPIIK(Biotin) [DenP14-A]

These binders were tested against tooth pellicle (thin film derived from salivary glycoproteins, formed in a human mouth) (human) (assay: phage ELISA on pellicle-coated HAP disks, anti-M13-HRP; no-phage control 0.218).

O.D.450	Binder
0.567	NPTDHIPANSTNSRVSKGNT [Pell 15]
0.598	NNTWPEGAGHTMPSTNIRQA [Pell 13]
0.75	ASVSNYPPIHHLATSNTTVN [Pell 2]
0.831	DPNESNYENATTVSQPTRHL [Pell 7]
0.521	NNTSADNPPETDSKHHLSMS [Pell 12]
0.607	NGPEVRQIPANFEKL [Pell 11]
0.755	GNTDTTPPNAVMEPTVQHKW [Pell 9]
0.735	DLCSSPSTWGSCIR [Pell 6]
0.614	QHCITERLHPPCTK [Pell 17]
0.729	NGPDMVQSVGKHKNS [Pell 10]
0.712	EPTHPTMRAQMHQSLRSSSP [Pell 8]
0.731	TPCATYPHFSGCRA [Pell 19]
0.83	DLCSMQMMNTGCHY [Pell 5]
0.664	DECMHGSDVEFCTS [Pell 4]
0.49	DECMEPLNAAHCWR [Pell 3]
0.715	WCTDFCTRSTPTSTSRSTTS [Pell 20]
0.739	AHPESLGIKYALDGNSDPHA [Pell 1]
0.578	NPTDSTHMMHARNHE [Pell 16]
0.7	NPTATPHMKDPMHSNAHSSA [Pell 14]
0.416	TPCAPASFNPHCSR [Pell 18]
